Molecular target: dCas9*_HNH-L88 (ZFP fusion) (Streptococcus pyogenes / synthetic)
Test: cell_activity; E. coli; maximum reached at optimal 6 bp spacer; about a third of unmodified dCas9
Settings: dCas9(R1335K), HNH deleted, 88 aa linker, C-terminal Zif268TS3
Method: A reporter system was developed to evaluate the impact of these modifications on the ability for dCas9 to repress the targeted promoter (FIGS. 13A-13F). The expression of the sgRNA and dCas9 are controlled using IPTG- and aTc-inducible promoters, respectively. All of these components are integrated into a single p15A plasmid backbone. The fold-repression is measured as the fluorescence from the output promoter in the absence of sgRNA inducer (0 mM IPTG), divided by the fluorescence when the sgRNA is expressed (1 mM IPTG). When the R1335K mutation is made (dCas9*), this completely abolishes repression as expected (FIG. 1C).
The ability for a zinc finger protein (ZFP) to recover nuclease activity was first tested. To this end, a variant of dCas9* described previously was built, where Zif268^TS3 is fused to the C-terminal end of dCas9* via a 58 amino acid linker (Bolukbasi M. F., et al., Nat. Methods, 2015 December; 12(12): 1150-56). The corresponding 12 bp operator recognized by Zif268^Ts3 was then placed upstream of the promoter, separated from the −35 position by a spacer (all promoter variants described are provided in TABLE 3). The orientation of the operator (forward and reverse) was initially tested with the forward yielding higher repression as previously observed (Bolukbasi M. F., et al., Nat. Methods, 2015 December; 12(12): 1150-56). […]

B1: sgRNA9 ; pZFP_S6 promoter (ssRNA ; dsDNA)
RNA: AUAAUACCCGUGUGACCCGUGUUUUAGAGCUAGAAAUAGCAAGUUAAAAUAAGGCUAGUCCGUUAUCAACUUGAAAAAGUGGCACCGAGUCGGUGCUUUUUUU
DNA 1: TCCGAATGACATGCGTCTCCGGTGTTGGAGCGACAGCCTTTACACCAACGGGTCACACGGGTATTATGCTAGC
DNA 2: GCTAGCATAATACCCGTGTGACCCGTTGGTGTAAAGGCTGTCGCTCCAACACCGGAGACGCATGTCATTCGGA
- activity: 28 fold repression

From patent US20200095589, “ENGINEERED DCAS9 WITH REDUCED TOXICITY AND ITS USE IN GENETIC CIRCUITS” (Massachusetts Institute of Technology, published 2020)
